# Test results: CN114790241A
# T1: 人TIGIT (hTIGIT) on 293T-hTIGIT cells (human) (UniProt Q495A1)
# T1 sequence: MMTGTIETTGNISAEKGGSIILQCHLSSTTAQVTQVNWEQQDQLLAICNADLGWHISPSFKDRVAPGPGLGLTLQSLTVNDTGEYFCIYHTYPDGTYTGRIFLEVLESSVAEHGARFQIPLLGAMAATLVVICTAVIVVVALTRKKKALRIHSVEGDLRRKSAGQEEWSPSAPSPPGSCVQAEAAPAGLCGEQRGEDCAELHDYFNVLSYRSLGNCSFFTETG
# T2: TIGIT-hFc蛋白(人TIGIT胞外区与人IgG1 Fc的融合蛋白) (human) (UniProt Q495A1)
# T2 sequence: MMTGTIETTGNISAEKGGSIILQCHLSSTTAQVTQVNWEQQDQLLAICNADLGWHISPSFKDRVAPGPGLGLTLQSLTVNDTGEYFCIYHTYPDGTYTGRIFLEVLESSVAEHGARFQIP
# Columns and labels:
# [1] = molecular target: T1, 人TIGIT (hTIGIT) on 293T-hTIGIT cells (human); assay: flow cytometry on 293T-hTIGIT cells, secondary antibody alone (background control)
# [2] = molecular target: 食蟹猴TIGIT (Cyno-TIGIT) on 293T-Cyno-TIGIT cells (cynomolgus monkey (Macaca fascicularis)); assay: flow cytometry on 293T-Cyno-TIGIT cells, secondary antibody alone (background control)
# Sequence of 食蟹猴TIGIT (Cyno-TIGIT) on 293T-Cyno-TIGIT cells (cynomolgus monkey (Macaca fascicularis)) (chain, as listed by the source limits assumed): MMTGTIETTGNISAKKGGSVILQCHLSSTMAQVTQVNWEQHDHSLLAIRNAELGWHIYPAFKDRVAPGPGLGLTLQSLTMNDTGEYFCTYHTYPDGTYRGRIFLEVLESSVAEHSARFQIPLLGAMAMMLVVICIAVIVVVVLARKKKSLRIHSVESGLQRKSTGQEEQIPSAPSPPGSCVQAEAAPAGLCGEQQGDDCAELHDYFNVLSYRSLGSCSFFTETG
# [3] = molecular target: T2, TIGIT-hFc蛋白(人TIGIT胞外区与人IgG1 Fc的融合蛋白) (human); assay: flow cytometry, blocking of TIGIT-hFc binding to 293T-hPVR cells, hybridoma supernatant
# [4] = molecular target: 食蟹猴TIGIT (Cyno-TIGIT) on 293T-Cyno-TIGIT cells (cynomolgus monkey (Macaca fascicularis)); assay: flow cytometry on 293T-Cyno-TIGIT cells, 50 uL hybridoma supernatant, APC anti-mouse IgG Fc
# [5] = molecular target: T2, TIGIT-hFc蛋白(人TIGIT胞外区与人IgG1 Fc的融合蛋白) (human); assay: flow cytometry, signal on 293T-hPVR cells with 500 ng TIGIT-hFc and 50 uL hybridoma supernatant
# [6] = molecular target: T1, 人TIGIT (hTIGIT) on 293T-hTIGIT cells (human); assay: flow cytometry on 293T-hTIGIT cells, 0.5 ug antibody, APC anti-human IgG Fc
# [7] = molecular target: T1, 人TIGIT (hTIGIT) on 293T-hTIGIT cells (human); assay: flow cytometry on 293T-hTIGIT cells, 1.0 ug antibody, APC anti-human IgG Fc
# [8] = molecular target: T1, 人TIGIT (hTIGIT) on 293T-hTIGIT cells (human); assay: flow cytometry on 293T-hTIGIT cells, 1.7 ug antibody, APC anti-human IgG Fc
molecule,measurement,setting,value
"APC抗人IgG Fc二抗(Biolegend, Cat409306) (antibody)",Geom.Mean,[1],405
"APC羊抗小鼠IgG Fc二抗(Biolegend, Cat405308) (antibody)",Geom.Mean,[2],1920
"鼠源抗TIGIT抗体(杂交瘤18A12分泌的抗体) (antibody, V domains shown) VH: QVQLLESGGGLVQPGGSMKLSCVVSGFTFSNYWMNWVRQSPEKGLEWVAEIRLKSNNYATHYAESVKGRFAISRDDSKSSVYLQMNNLRAEDTGVYYCTRLYYGNYFDYWGQGTTLTVSS VL: DIQMTQSPASLSASVGETVTITCRASENTYSYLAWYQQKQGKSPQLLVYNAKTLAEGVPSRFSGSGSGTQFSLKITSLQPEDFGSYYCQHHYAFSYTFGGGTKLEMK",阻断率%,[3],80.9%
same,Geom.Mean,[4],20000
same,Geom.Mean,[5],2760
"抗TIGIT嵌合抗体(IgG1亚型) (antibody, V domains shown) VH: QVQLLESGGGLVQPGGSMKLSCVVSGFTFSNYWMNWVRQSPEKGLEWVAEIRLKSNNYATHYAESVKGRFAISRDDSKSSVYLQMNNLRAEDTGVYYCTRLYYGNYFDYWGQGTTLTVSS VL: DIQMTQSPASLSASVGETVTITCRASENTYSYLAWYQQKQGKSPQLLVYNAKTLAEGVPSRFSGSGSGTQFSLKITSLQPEDFGSYYCQHHYAFSYTFGGGTKLEMKR",Geom.Mean,[6],8790
same,Geom.Mean,[7],10300
same,Geom.Mean,[8],12200
